This note sets out measurements from article PMC7611929 (Nature structural & molecular biology, 2021).

Series [1] concerns the molecule itself. The series can be described thus: SEC-MALS. On the technique in general: Size exclusion chromatography separates by hydrodynamic size, large species first.
Series [2] concerns the molecule itself. As to the kind of experiment: AUC.

B1: TRIM21 coiled-coil (T21CC235; residues 129-235) (domain or fragment, UniProt P19474 129-235, looked up)
chain: EEAAQEYQEKLQVALGELRRKQELAEKLEVEIAIKRADWKKTVETQKSRIHAEFVQQKNFLVEEEQRQLQELEKDEREQLRILGEKEAKLAQQSQALQELISELDRR
A word on the stoichiometry N: it is a count of units in the complex or per binding partner. For B1, the “stoichiometry N” value in series [1] is 2.

B2: TRIM21 RING-Box-Coiled-Coil (T21RBCC; residues 1-235) (domain or fragment, UniProt P19474 1-235, looked up)
chain: MASAARLTMMWEEVTCPICLDPFVEPVSIECGHSFCQECISQVGKGGGSVCPVCRQRFLLKNLRPNRQLANMVNNLKEISQEAREGTQGERCAVHGERLHLFCEKDGKALCWVCAQSRKHRDHAMVPLEEAAQEYQEKLQVALGELRRKQELAEKLEVEIAIKRADWKKTVETQKSRIHAEFVQQKNFLVEEEQRQLQELEKDEREQLRILGEKEAKLAQQSQALQELISELDRR
Regarding B2, the binding result in series [2] was “binds”.
